Results reported in PMC13397619.

B1: NLV3 TCR beta chain (CDR3β only) (parent)
chain: ASSPTGGSPSPLH
partner: MLVPMVATV
B2: NLV3 TCR beta chain (CDR3β only) (parent)
chain: ASSPTGGSPSPLH
partner: NLCPMVATV

Variants of: B1
Assay: T-Switch: Jurkat TCRβ−/− cells expressing a CDR3 saturation-mutagenesis library, stained with two peptide-HLA-A*02:01 tetramers (original and novel peptide) plus anti-CD3, FACS-sorted into four gates, gDNA sequenced
Conditions: with HLA-A*02:01 with peptide … (NLV 3-1, the original bait), tetramers 1 µg/mL, 30 min on ice, DP and SW gates expanded about 10 days between rounds ('two to three rounds of selection' in the Methods), gate SP: higher = more of the variant in the gate that binds the original peptide and not the novel one = retained original binding. Fold enrichment of the CDR3 variant in one FACS gate of a two-tetra, unresolved parent, parent is a CDR3 fragment, scale: fold enrichment, numbering: sequential-on-construct, sequence …

Point of comparison: […] (CDR3 as printed); H13Q derived by comparing it with the table's wild-type CDR3 ASSPTGGSPSPLH, enrichment 5.02. Against it:
- […] (CDR3 as printed); G7A derived by comparing it with the table's wild-type CDR3 ASSPTGGSPSPLH — lower, 0
- […] (CDR3 as printed); G6E derived by comparing it with the table's wild-type CDR3 ASSPTGGSPSPLH — lower, 0
- […] (CDR3 as printed); G7K derived by comparing it with the table's wild-type CDR3 ASSPTGGSPSPLH — lower, 0
- […] (CDR3 as printed); G7Y derived by comparing it with the table's wild-type CDR3 ASSPTGGSPSPLH — lower, 4.27
- […] (CDR3 as printed); H13D derived by comparing it with the table's wild-type CDR3 ASSPTGGSPSPLH — higher, 8.55
- […] (CDR3 as printed); G7C derived by comparing it with the table's wild-type CDR3 ASSPTGGSPSPLH — lower, 0
- […] (CDR3 as printed); A1R derived by comparing it with the table's wild-type CDR3 ASSPTGGSPSPLH — lower, 0
- […] (CDR3 as printed); G6T derived by comparing it with the table's wild-type CDR3 ASSPTGGSPSPLH — lower, 0.64
- […] (CDR3 as printed); G6D derived by comparing it with the table's wild-type CDR3 ASSPTGGSPSPLH — lower, 0.39
- […] (CDR3 as printed); A1D derived by comparing it with the table's wild-type CDR3 ASSPTGGSPSPLH — lower, 0
- […] (CDR3 as printed); G6N derived by comparing it with the table's wild-type CDR3 ASSPTGGSPSPLH — lower, 0
- […] (CDR3 as printed); H13I derived by comparing it with the table's wild-type CDR3 ASSPTGGSPSPLH — higher, 11.3
- […] (CDR3 as printed); H13K derived by comparing it with the table's wild-type CDR3 ASSPTGGSPSPLH — lower, 3.5
- […] (CDR3 as printed); G7M derived by comparing it with the table's wild-type CDR3 ASSPTGGSPSPLH — lower, 0
- […] (CDR3 as printed); H13N derived by comparing it with the table's wild-type CDR3 ASSPTGGSPSPLH — higher, 7.17
- […] (CDR3 as printed); G7Q derived by comparing it with the table's wild-type CDR3 ASSPTGGSPSPLH — lower, 0
- […] (CDR3 as printed); H13T derived by comparing it with the table's wild-type CDR3 ASSPTGGSPSPLH — higher, 5.47
- […] (CDR3 as printed); A1C derived by comparing it with the table's wild-type CDR3 ASSPTGGSPSPLH — lower, 1.12
- […] (CDR3 as printed); G6I derived by comparing it with the table's wild-type CDR3 ASSPTGGSPSPLH — lower, 0
- […] (CDR3 as printed); H13W derived by comparing it with the table's wild-type CDR3 ASSPTGGSPSPLH — higher, 8.46
- […] (CDR3 as printed); A1P derived by comparing it with the table's wild-type CDR3 ASSPTGGSPSPLH — lower, 0
- […] (CDR3 as printed); G6Y derived by comparing it with the table's wild-type CDR3 ASSPTGGSPSPLH — lower, 0
- […] (CDR3 as printed); L12E derived by comparing it with the table's wild-type CDR3 ASSPTGGSPSPLH — lower, 0
- […] (CDR3 as printed); L12A derived by comparing it with the table's wild-type CDR3 ASSPTGGSPSPLH — lower, 0
- […] (CDR3 as printed); G7F derived by comparing it with the table's wild-type CDR3 ASSPTGGSPSPLH — lower, 0
- […] (CDR3 as printed); G7N derived by comparing it with the table's wild-type CDR3 ASSPTGGSPSPLH — lower, 0
- […] (CDR3 as printed); G6P derived by comparing it with the table's wild-type CDR3 ASSPTGGSPSPLH — lower, 0
- […] (CDR3 as printed); A1E derived by comparing it with the table's wild-type CDR3 ASSPTGGSPSPLH — lower, 0
- […] (CDR3 as printed); G6M derived by comparing it with the table's wild-type CDR3 ASSPTGGSPSPLH — lower, 0
- […] (CDR3 as printed); A1Q derived by comparing it with the table's wild-type CDR3 ASSPTGGSPSPLH — lower, 0
- […] (CDR3 as printed); G6L derived by comparing it with the table's wild-type CDR3 ASSPTGGSPSPLH — lower, 0
- […] (CDR3 as printed); H13P derived by comparing it with the table's wild-type CDR3 ASSPTGGSPSPLH — lower, 0
- […] (CDR3 as printed); G7I derived by comparing it with the table's wild-type CDR3 ASSPTGGSPSPLH — lower, 0
- […] (CDR3 as printed); G6R derived by comparing it with the table's wild-type CDR3 ASSPTGGSPSPLH — lower, 0
- […] (CDR3 as printed); A1K derived by comparing it with the table's wild-type CDR3 ASSPTGGSPSPLH — lower, 0
- […] (CDR3 as printed); A1T derived by comparing it with the table's wild-type CDR3 ASSPTGGSPSPLH — lower, 0
- […] (CDR3 as printed); L12G derived by comparing it with the table's wild-type CDR3 ASSPTGGSPSPLH — lower, 0
- […] (CDR3 as printed); H13Y derived by comparing it with the table's wild-type CDR3 ASSPTGGSPSPLH — higher, 6.69
- […] (CDR3 as printed); A1W derived by comparing it with the table's wild-type CDR3 ASSPTGGSPSPLH — lower, 0
- […] (CDR3 as printed); A1I derived by comparing it with the table's wild-type CDR3 ASSPTGGSPSPLH — lower, 0
- […] (CDR3 as printed); H13G derived by comparing it with the table's wild-type CDR3 ASSPTGGSPSPLH — lower, 0.848
- […] (CDR3 as printed); G7T derived by comparing it with the table's wild-type CDR3 ASSPTGGSPSPLH — lower, 0
- […] (CDR3 as printed); G6K derived by comparing it with the table's wild-type CDR3 ASSPTGGSPSPLH — lower, 0
- […] (CDR3 as printed); G7S derived by comparing it with the table's wild-type CDR3 ASSPTGGSPSPLH — lower, 0
- […] (CDR3 as printed); A1S derived by comparing it with the table's wild-type CDR3 ASSPTGGSPSPLH — lower, 4.29
- […] (CDR3 as printed); G6S derived by comparing it with the table's wild-type CDR3 ASSPTGGSPSPLH — higher, 10.5
- […] (CDR3 as printed); H13S derived by comparing it with the table's wild-type CDR3 ASSPTGGSPSPLH — higher, 7.33
- […] (CDR3 as printed); G6F derived by comparing it with the table's wild-type CDR3 ASSPTGGSPSPLH — lower, 0
- […] (CDR3 as printed); H13V derived by comparing it with the table's wild-type CDR3 ASSPTGGSPSPLH — higher, 5.71
- […] (CDR3 as printed); H13M derived by comparing it with the table's wild-type CDR3 ASSPTGGSPSPLH — higher, 6.07
- […] (CDR3 as printed); G7D derived by comparing it with the table's wild-type CDR3 ASSPTGGSPSPLH — lower, 0
- […] (CDR3 as printed); G7L derived by comparing it with the table's wild-type CDR3 ASSPTGGSPSPLH — lower, 0
- […] (CDR3 as printed); G6W derived by comparing it with the table's wild-type CDR3 ASSPTGGSPSPLH — lower, 0
- […] (CDR3 as printed); G7H derived by comparing it with the table's wild-type CDR3 ASSPTGGSPSPLH — lower, 0
- […] (CDR3 as printed); G6A derived by comparing it with the table's wild-type CDR3 ASSPTGGSPSPLH — higher, 8.12
- […] (CDR3 as printed); H13F derived by comparing it with the table's wild-type CDR3 ASSPTGGSPSPLH — lower, 4.3
- […] (CDR3 as printed); L12C derived by comparing it with the table's wild-type CDR3 ASSPTGGSPSPLH — lower, 4.3
- […] (CDR3 as printed); H13R derived by comparing it with the table's wild-type CDR3 ASSPTGGSPSPLH — lower, 4.99
- […] (CDR3 as printed); H13C derived by comparing it with the table's wild-type CDR3 ASSPTGGSPSPLH — higher, 6.06
- […] (CDR3 as printed); G6C derived by comparing it with the table's wild-type CDR3 ASSPTGGSPSPLH — lower, 0
- […] (CDR3 as printed); G6H derived by comparing it with the table's wild-type CDR3 ASSPTGGSPSPLH — lower, 0
- […] (CDR3 as printed); G6Q derived by comparing it with the table's wild-type CDR3 ASSPTGGSPSPLH — lower, 0
- […] (CDR3 as printed); A1L derived by comparing it with the table's wild-type CDR3 ASSPTGGSPSPLH — lower, 0
- […] (CDR3 as printed); H13A derived by comparing it with the table's wild-type CDR3 ASSPTGGSPSPLH — higher, 6.12
- […] (CDR3 as printed); L12H derived by comparing it with the table's wild-type CDR3 ASSPTGGSPSPLH — lower, 0
- […] (CDR3 as printed); A1H derived by comparing it with the table's wild-type CDR3 ASSPTGGSPSPLH — lower, 0
- […] (CDR3 as printed); G7V derived by comparing it with the table's wild-type CDR3 ASSPTGGSPSPLH — lower, 0
- […] (CDR3 as printed); A1Y derived by comparing it with the table's wild-type CDR3 ASSPTGGSPSPLH — lower, 0
- […] (CDR3 as printed); A1M derived by comparing it with the table's wild-type CDR3 ASSPTGGSPSPLH — lower, 0
- […] (CDR3 as printed); H13E derived by comparing it with the table's wild-type CDR3 ASSPTGGSPSPLH — lower, 4.01
- […] (CDR3 as printed); A1G derived by comparing it with the table's wild-type CDR3 ASSPTGGSPSPLH — higher, 5.7
- […] (CDR3 as printed); G6V derived by comparing it with the table's wild-type CDR3 ASSPTGGSPSPLH — lower, 0
- […] (CDR3 as printed); A1V derived by comparing it with the table's wild-type CDR3 ASSPTGGSPSPLH — lower, 0.479
- […] (CDR3 as printed); A1N derived by comparing it with the table's wild-type CDR3 ASSPTGGSPSPLH — lower, 0
- […] (CDR3 as printed); G7W derived by comparing it with the table's wild-type CDR3 ASSPTGGSPSPLH — lower, 0
- […] (CDR3 as printed); G7E derived by comparing it with the table's wild-type CDR3 ASSPTGGSPSPLH — lower, 0.336
- […] (CDR3 as printed); G7R derived by comparing it with the table's wild-type CDR3 ASSPTGGSPSPLH — lower, 0
- […] (CDR3 as printed); A1F derived by comparing it with the table's wild-type CDR3 ASSPTGGSPSPLH — lower, 0
- […] (CDR3 as printed); H13L derived by comparing it with the table's wild-type CDR3 ASSPTGGSPSPLH — higher, 5.69
- […] (CDR3 as printed); L12D derived by comparing it with the table's wild-type CDR3 ASSPTGGSPSPLH — lower, 0
- […] (CDR3 as printed); L12F derived by comparing it with the table's wild-type CDR3 ASSPTGGSPSPLH — lower, 0

Variants of: B2
Assay: as above
Conditions: with HLA-A*02:01 with peptide … (NLV 2-1, the novel peptide), tetramers 1 µg/mL, 30 min on ice, SP, DP and SW gates expanded about 10 days between rounds ('two to three rounds of selection' in the Methods), gate SW: higher = more of the variant in the gate that binds the novel peptide and not the original one = switched binding. Fold enrichment of the CDR3 variant in one FACS gate of a two-tetramer stain, unresolved parent, parent is a CDR3 fragment, scale: fold enrichment, numbering: sequential-on-construct, sequence starts at 1

Point of comparison: […] (CDR3 as printed); S10E derived by comparing it with the table's wild-type CDR3 ASSPTGGSPSPLH, enrichment 0. Against it:
- […] (CDR3 as printed); S10A derived by comparing it with the table's wild-type CDR3 ASSPTGGSPSPLH — the same, 0
